Assay: yeast display, Sf9 membrane polyspecificity reagent, FACS + sequencing; frameworks hold sequencing errors
Method in brief: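 A synthetic nanobody library was expressed on Saccharomyces cerevisiae BJ5465 by galactose induction for 36–48 hours. The library was stained for 1 hour at 4 °C with 10% biotinylated, detergent-solubilized Sf9 membrane reagent and enriched with streptavidin microbeads before FACS. Low and high (top ~1%) gates were set on anti-HA fluorescence for expression and streptavidin fluorescence for reagent binding, and each polyreactivity label reflects the gate of origin.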

| Sequence | polyreactivity (PSR sort gate) |
| --- | --- |
| QVQLVESGGGLVQAGGSLRLSCAASGGIFRANALGWYRQAPGKERELVAAIRYSGGGTYYADSVKGRFTISRDNAKNTVYLQMNSLKPEDTAVYYCAARYRGRGYVAYDYWGQGTQVTVSS | high polyreactivity |
| QVQLVESGGGLVQAGGSLRLSCAASGGIFRHNAMGWYRQAPGKEREFVAAISRSGGNTYYADSVKGRFTISRDNAKNTVYLQMNSLKPEDTAVYYCNKIEYDSWADHVYWGQGTQVTVSS | low polyreactivity |
| QVQLVESGGGLVQAGGSLRLSCAASGGIFRKYAMGWDRQAPGKERDLVAAITSGGGTYYADSVKGRFTISRDNAKNTVLLQMNSQKPEDTAVYYCAARTLYVARRRPYYYWGQGTLVTVSS | high polyreactivity |
| QVQLVESGGGLVQAGGSLRLSCAASGGIFRVYAMGWYRQAPGKERELVAAISRSGSSTYYAVSVKGRFTISRDNAKNTVYLQMNSLKPEDTAVYYCNAYSQYWLGNNYWGEGTQVTVSS | high polyreactivity |
| QVQLVESGGGLVQAGGSLRLSCAASGGIFRYYAMGWYRQAPGKERELVAAITSSGTSTYYADSVKGRFTISRDNAKNTVYLQMNSLKPEDTAVYYCAATRTKRKFDYWGQGTQVTVSS | high polyreactivity |
| QVQLVESGGGLVQAGGSLRLSCAASGGIFSENALGWYRQAPGKERELVAVITTSGGSTYYADSVKGRFTISRDNAKNTVYLQMNSLKPEDTAVYYCAADVLSWEYDYWGQGTQVTVSS | low polyreactivity |
| QVQLVESGGGLVQAGGSLRLSCAASGGIFSGNDMGWYRHAPGKESEFVAAISWSGGSTYYADSVKGRFTISRDNAKNTVYLQMNSLKPEDTAVYYCAAAHYFLGPQGASFYYWGQGTQVTVSS | low polyreactivity |
| QVQLVESGGGLVQAGGSLRLSCAASGGIFSVYAMGWYRQAPGKERELVAAITTSGGSTYYADSVKGRFTISRDNAKNTVYLQMNSLKPEDTAVYYCAADYPPTFYYWYEEYEYWGQGTQVTVSS | low polyreactivity |
| QVQLVESGGGLVQAGGSLRLSCAASGGIFTYYAMGWYRQAPGKERELVAAITWSGGSTYYADSVKGRFTISRDTAKNTVYLQMNSLKPEDTAVYYCNAVVLHVTTDNSTFTTDDYWGQGTQLTVSS | low polyreactivity |
| QVQLVESGGGLVQAGGSLRLSCAASGGIFVIYAMGWYRQAPGKERELVAAITWGGGTTYYADSVKGRFTISRDNAKNTVYLQMNSLNPEDTAVYYCNADGFVYGWYYYYEGYDYWGQGTQVTVSS | low polyreactivity |
| QVQLVESGGGLVQAGGSLRLSCAASGGIFVPNDMGWYRQAPGKERELVAAIRDGGSTNYADSVKGRFTISRDNAKNTVYLQMNSLKPEDTAVYYCAADYSLALAKYDYWGQGTQVTVSS | low polyreactivity |
| QVQLVESGGGLVQAGGSLRLSCAASGGIFVTYTMGWYRQAPGKERELVAGINSRSGSTYADSVKGRFTISRDNAKNTVYLQMNSLKLEDTAVYYCAADRIDLGRASRYGYWGQGTQVTVSS | low polyreactivity |
| QVQLVESGGGLVQAGGSLRLSCAASGGIFWNYAMGWYRQAPGKERELVAVINTGGRTYYADSVKGRFTISRDNAKYTVYLQMNSLKPEDTAVYYCAAKDFTIHYDYWGQGTQVTVSS | high polyreactivity |
| QVQLVESGGGLVQAGGSLRLSCAASGGIFYDNAMGWYRQARGKEWELVAAINWSGGSTYYADSVKGRFTISRDNAKNTVYLQMNSLKPDDTAVYYCAASRYFYRTYWNFYGMDYSGQGTQVTVSS | high polyreactivity |
| QVQLVESGGGLVQAGGSLRLSCAASGGIFYFNAMGWYRQAPGKERELVASITWSGGNTYYADSVKGRFTISRDNAKNTVYLQMNSLKPEDTAVYDCAADTQEYRPTYDYWGQGTQVTVSS | low polyreactivity |
| QVQLVESGGGLVQAGGSLRLSCAASGGIFYGNVMGWYRQAPGKERQLVADITSVGSTYYADSVKGRFTFSRDNAKYTVYIQMNSLKPEDTAVYYCAAEPDHVAESHSGYDYWGQGTLVTVSS | low polyreactivity |

| Sequence | polyreactivity (PSR sort gate) |
| --- | --- |
| QVQLVESGGGLVQAGGSLRLSCAASGGIFYTYAMGWSRQAPGKERELVAAISARGGSTYYADSVKGRFTISRDIAKNTVYLQMNSLKPDDTAVYYCAAETYILLEYDYWGQGTQVTVSS | high polyreactivity |
| QVQLVESGGGLVQAGGSLRLSCAASGGISSSNAMGGYRQAPGKERELVAGINSRGGSTYADSVKGRFTISRDNAKNTVYLQMKSLKPEDTAVYYCAAAPTYKWRRKNYDYWGQGTQVTVSS | high polyreactivity |
| QVQLVESGGGLVQAGGSLRLSCAASGGNFERNAMGWYRQAPGKERELVAAITGSGGRTYYADSVKGRFTISRDNAKITVYLQMNSLKPEDTAVYFCAAVPWWKYKYWGQGTQVTVSS | high polyreactivity |
| QVQLVESGGGLVQAGGSLRLSCAASGGNFGTNDMGWYRQAPGKERELVAAITSDSGSTYYADSVKGRFTISRDNAKNTVYLQMNSLKPEDTAVYYCAAEDGPWFYRYGYWGQGTQVTVSS | low polyreactivity |
| QVQLVESGGGLVQAGGSLRLSCAASGGNLPYNVMGRYRQAPGKEWELVAAITSGVNTNYADSVKGRFTISRDNAKNTVYLQMNSLKPEDTAVYYCAARSGGPSDGSGYWGQGTQVTVSS | low polyreactivity |
| QVQLVESGGGLVQAGGSLRLSCAASGGSFYNYPMGWYRQAPGKERELVAAITYSGVRTNYADSVKGRFTISRDNAKNTVYLQMNSLKPEDTAVYYCAADGLSNVRQMDYWGQGTQVTVSS | low polyreactivity |
| QVQLVESGGGLVQAGGSLRLSCAASGGTFAPNAMGWYRQAPGKEREFVAAITISGGSTYYADSVKGRFTISRDNAKNTVYLQMNSLKPEDTAVYYCAADYYAWDTYQWYDYWGQGTQVTVSS | high polyreactivity |
| QVQLVESGGGLVQAGGSLRLSCAASGGTFARYAMGWYRQAPGKERELVAAITRSGGTTYYADSVKGRFTISRDNAKNTVYLQMNSLKPEDTAVYYCAALPIVDYYGYGYWGQGTQVTVSS | high polyreactivity |
| QVQLVESGGGLVQAGGSLRLSCAASGGTFAVYAMGWYRQAPGKEREWVAAIDSGGRTNYADSVKGRFTISRDNAKNTVYLQMNSLKPEDTAVYYCAADGGGQYVRYDYWGQGTQVTVSS | high polyreactivity |
| QVQLVESGGGLVQAGGSLRLSCAASGGTFAWYAMGWYRQAPGKERELVAAITSDGITKYADSVKGRFTISRDNAKNTVYLQMNSLKPEDTAVYYCAKDDGPSDWIGRWFDYWGQGTQVTVSS | low polyreactivity |
| QVQLVESGGGLVQAGGSLRLSCAASGGTFDDYAMGWYRQAPGKERELVAAISSSGGSTYYADSVKGRITISRDNAKNTVYLEMNSLKPDDTAVYYCAVDAFWRHWYYPYESHHDYWGQGTQVTVSS | low polyreactivity |
| QVQLVESGGGLVQAGGSLRLSCAASGGTFDWNPMGWYRQAPGKERELVASITSGGRTNYADSVKGRFTISRDNAKNTVYLQMNSLKPEDTAVSYCAKYRRSAYPWQTWVGQKFDYWGQGTHVTVSS | low polyreactivity |
| QVQLVESGGGLVQAGGSLRLSCAASGGTFDWNTMGWYRQAPGKERELVASITSGGRTNYADSVKGRFTISRDNAKNTVYLQMNSLKPEDTAVYYCAIYRRSAYPWQTWVGQKFDYWGQGTQVTVSS | low polyreactivity |
| QVQLVESGGGLVQAGGSLRLSCAASGGTFEYNAMGWYRQAPGKERELVAAISKSGGRTYYADSVKGRFTISRDNAKNTVYLQMNSLKPEDTAVYYCAKRYVWGQGTQVTVSS | high polyreactivity |
| QVQLVESGGGLVQAGGSLRLSCAASGGTFFGYAMGWYRQAPGKERELVAAISGSGGRTYYADSVKARFTISRDNAKNTVYLQMNSLKPEDTAVYYCAADATHETYYPFYYWGQGTQVTVSS | high polyreactivity |

From the nanobody polyreactivity screen of Harvey et al. (2022)
